{
  "source": "patent US20070078092A1",
  "about": "(CUREGENICS, published 2007)",
  "binders": {"B1": {"name": "PTR 6390 (peptide)", "peptide": "Cholesteryloxycarbonyl-RPR[Nva]Y[Dap]-OH", "SMILES": "CCC[C@H](NC(=O)[C@H](CCCNC(=N)N)NC(=O)[C@@H]1CCCN1C(=O)[C@H](CCCNC(=N)N)NC(=O)O[C@H]1CC[C@@]2(C)C(=CC[C@H]3[C@@H]4CC[C@H]([C@H](C)CCCC(C)C)[C@@]4(C)CC[C@@H]32)C1)C(=O)N[C@@H](Cc1ccc(O)cc1)C(=O)N[C@@H](CN)C(=O)O"}, "B2": {"name": "PTR 6388 (peptide)", "peptide": "Cholesteryloxycarbonyl-RP[Orn][Nva]Y[Dap][hLeu]-NH2", "SMILES": "CCC[C@H](NC(=O)[C@H](CCCN)NC(=O)[C@@H]1CCCN1C(=O)[C@H](CCCNC(=N)N)NC(=O)O[C@H]1CC[C@@]2(C)C(=CC[C@H]3[C@@H]4CC[C@H]([C@H](C)CCCC(C)C)[C@@]4(C)CC[C@@H]32)C1)C(=O)N[C@@H](Cc1ccc(O)cc1)C(=O)N[C@@H](CN)C(=O)N[C@@H](CCC(C)C)C(N)=O"}, "B3": {"name": "PTR 6386 (peptide)", "peptide": "Cholesteryloxycarbonyl-[Orn]P[Orn][Nva]Y[Dap][hLeu]-NH2", "SMILES": "CCC[C@H](NC(=O)[C@H](CCCN)NC(=O)[C@@H]1CCCN1C(=O)[C@H](CCCN)NC(=O)O[C@H]1CC[C@@]2(C)C(=CC[C@H]3[C@@H]4CC[C@H]([C@H](C)CCCC(C)C)[C@@]4(C)CC[C@@H]32)C1)C(=O)N[C@@H](Cc1ccc(O)cc1)C(=O)N[C@@H](CN)C(=O)N[C@@H](CCC(C)C)C(N)=O"}, "B4": {"name": "PTR 6344 (peptide)", "peptide": "Cholesteryloxycarbonyl-KKKRPR[Nva]Y[Dap][hLeu]-NH2", "SMILES": "CCC[C@H](NC(=O)[C@H](CCCNC(=N)N)NC(=O)[C@@H]1CCCN1C(=O)[C@H](CCCNC(=N)N)NC(=O)[C@H](CCCCN)NC(=O)[C@H](CCCCN)NC(=O)[C@H](CCCCN)NC(=O)O[C@H]1CC[C@@]2(C)C(=CC[C@H]3[C@@H]4CC[C@H]([C@H](C)CCCC(C)C)[C@@]4(C)CC[C@@H]32)C1)C(=O)N[C@@H](Cc1ccc(O)cc1)C(=O)N[C@@H](CN)C(=O)N[C@@H](CCC(C)C)C(N)=O"}, "B5": {"name": "PTR 6394 (peptide)", "peptide": "{HO‑CO‑(CH2)2‑CO}-[dK][dK][dK]RPR[Nva]Y[Dap][hLeu]-NH2"}, "B6": {"name": "PTR 6352 (peptide)", "peptide": "Cholesteryloxycarbonyl-KKKRPR[Nva]Y[Dap][hLeu]-OH", "SMILES": "CCC[C@H](NC(=O)[C@H](CCCNC(=N)N)NC(=O)[C@@H]1CCCN1C(=O)[C@H](CCCNC(=N)N)NC(=O)[C@H](CCCCN)NC(=O)[C@H](CCCCN)NC(=O)[C@H](CCCCN)NC(=O)O[C@H]1CC[C@@]2(C)C(=CC[C@H]3[C@@H]4CC[C@H]([C@H](C)CCCC(C)C)[C@@]4(C)CC[C@@H]32)C1)C(=O)N[C@@H](Cc1ccc(O)cc1)C(=O)N[C@@H](CN)C(=O)N[C@@H](CCC(C)C)C(=O)O"}, "B7": {"name": "PTR 6370 (peptide)", "peptide": "XPHXYXX", "modifications": "Nva, Dap, Hol; C-terminal NH2"}, "B8": {"name": "PTR 6382 (peptide)", "peptide": "Cholesteryloxycarbonyl-[Orn]PR[Nva]Y[Dap][hLeu]-NH2", "SMILES": "CCC[C@H](NC(=O)[C@H](CCCNC(=N)N)NC(=O)[C@@H]1CCCN1C(=O)[C@H](CCCN)NC(=O)O[C@H]1CC[C@@]2(C)C(=CC[C@H]3[C@@H]4CC[C@H]([C@H](C)CCCC(C)C)[C@@]4(C)CC[C@@H]32)C1)C(=O)N[C@@H](Cc1ccc(O)cc1)C(=O)N[C@@H](CN)C(=O)N[C@@H](CCC(C)C)C(N)=O"}, "B9": {"name": "PTR 6336 (peptide)", "peptide": "Cholesteryloxycarbonyl-GGGGGGRPR[Nva]Y[Dap][hLeu]-NH2", "SMILES": "CCC[C@H](NC(=O)[C@H](CCCNC(=N)N)NC(=O)[C@@H]1CCCN1C(=O)[C@H](CCCNC(=N)N)NC(=O)CNC(=O)CNC(=O)CNC(=O)CNC(=O)CNC(=O)CNC(=O)O[C@H]1CC[C@@]2(C)C(=CC[C@H]3[C@@H]4CC[C@H]([C@H](C)CCCC(C)C)[C@@]4(C)CC[C@@H]32)C1)C(=O)N[C@@H](Cc1ccc(O)cc1)C(=O)N[C@@H](CN)C(=O)N[C@@H](CCC(C)C)C(N)=O"}, "B10": {"name": "PTR 6346 (peptide)", "peptide": "Cholesteryloxycarbonyl-RPR[Nva]Y[Dap][hLeu][dK][dK][dK]-NH2", "SMILES": "CCC[C@H](NC(=O)[C@H](CCCNC(=N)N)NC(=O)[C@@H]1CCCN1C(=O)[C@H](CCCNC(=N)N)NC(=O)O[C@H]1CC[C@@]2(C)C(=CC[C@H]3[C@@H]4CC[C@H]([C@H](C)CCCC(C)C)[C@@]4(C)CC[C@@H]32)C1)C(=O)N[C@@H](Cc1ccc(O)cc1)C(=O)N[C@@H](CN)C(=O)N[C@@H](CCC(C)C)C(=O)N[C@H](CCCCN)C(=O)N[C@H](CCCCN)C(=O)N[C@H](CCCCN)C(N)=O"}, "B11": {"name": "PTR 6376 (peptide)", "peptide": "Cholesteryloxycarbonyl-RPH[Nva]Y[Dap][hLeu]-NH2", "SMILES": "CCC[C@H](NC(=O)[C@H](Cc1c[nH]cn1)NC(=O)[C@@H]1CCCN1C(=O)[C@H](CCCNC(=N)N)NC(=O)O[C@H]1CC[C@@]2(C)C(=CC[C@H]3[C@@H]4CC[C@H]([C@H](C)CCCC(C)C)[C@@]4(C)CC[C@@H]32)C1)C(=O)N[C@@H](Cc1ccc(O)cc1)C(=O)N[C@@H](CN)C(=O)N[C@@H](CCC(C)C)C(N)=O"}, "B12": {"name": "PTR 6348 (peptide)", "peptide": "Cholesteryloxycarbonyl-[dK][dK][dK]RPR[Nva]Y[Ser(Me)][hLeu]-NH2", "SMILES": "CCC[C@H](NC(=O)[C@H](CCCNC(=N)N)NC(=O)[C@@H]1CCCN1C(=O)[C@H](CCCNC(=N)N)NC(=O)[C@@H](CCCCN)NC(=O)[C@@H](CCCCN)NC(=O)[C@@H](CCCCN)NC(=O)O[C@H]1CC[C@@]2(C)C(=CC[C@H]3[C@@H]4CC[C@H]([C@H](C)CCCC(C)C)[C@@]4(C)CC[C@@H]32)C1)C(=O)N[C@@H](Cc1ccc(O)cc1)C(=O)N[C@@H](COC)C(=O)N[C@@H](CCC(C)C)C(N)=O"}, "B13": {"name": "PTR 6372 (peptide)", "peptide": "H-RP[Orn][Nva]Y[Dap][hLeu]-NH2", "SMILES": "CCC[C@H](NC(=O)[C@H](CCCN)NC(=O)[C@@H]1CCCN1C(=O)[C@@H](N)CCCNC(=N)N)C(=O)N[C@@H](Cc1ccc(O)cc1)C(=O)N[C@@H](CN)C(=O)N[C@@H](CCC(C)C)C(N)=O"}, "B14": {"name": "PTR 6366 (peptide)", "peptide": "XPRXYXX", "modifications": "Nva, Dap, Hol; C-terminal NH2"}, "B15": {"name": "PTR 6384 (peptide)", "peptide": "H-[Orn]P[Orn][Nva]Y[Dap][hLeu]-NH2", "SMILES": "CCC[C@H](NC(=O)[C@H](CCCN)NC(=O)[C@@H]1CCCN1C(=O)[C@@H](N)CCCN)C(=O)N[C@@H](Cc1ccc(O)cc1)C(=O)N[C@@H](CN)C(=O)N[C@@H](CCC(C)C)C(N)=O"}, "B16": {"name": "PTR 6338 (peptide)", "peptide": "Cholesteryloxycarbonyl-[dK][dK][dK][dK][dK][dK]RPR[Nva]Y[Ser(Me)][hLeu]-NH2", "SMILES": "CCC[C@H](NC(=O)[C@H](CCCNC(=N)N)NC(=O)[C@@H]1CCCN1C(=O)[C@H](CCCNC(=N)N)NC(=O)[C@@H](CCCCN)NC(=O)[C@@H](CCCCN)NC(=O)[C@@H](CCCCN)NC(=O)[C@@H](CCCCN)NC(=O)[C@@H](CCCCN)NC(=O)[C@@H](CCCCN)NC(=O)O[C@H]1CC[C@@]2(C)C(=CC[C@H]3[C@@H]4CC[C@H]([C@H](C)CCCC(C)C)[C@@]4(C)CC[C@@H]32)C1)C(=O)N[C@@H](Cc1ccc(O)cc1)C(=O)N[C@@H](COC)C(=O)N[C@@H](CCC(C)C)C(N)=O"}, "B17": {"name": "PTR 6380 (peptide)", "peptide": "H-[Orn]PR[Nva]Y[Dap][hLeu]-NH2", "SMILES": "CCC[C@H](NC(=O)[C@H](CCCNC(=N)N)NC(=O)[C@@H]1CCCN1C(=O)[C@@H](N)CCCN)C(=O)N[C@@H](Cc1ccc(O)cc1)C(=O)N[C@@H](CN)C(=O)N[C@@H](CCC(C)C)C(N)=O"}, "B18": {"name": "PTR 6392 (peptide)", "peptide": "{Coumarin‑3‑oyl}-RPR[Nva]Y[Dap][hLeu]-NH2"}, "B19": {"name": "PTR 6398 (peptide)", "peptide": "Cholesteryloxycarbonyl-[dK][dK][dK][Orn]PR[Nva]Y[Dap][hLeu]-NH2", "SMILES": "CCC[C@H](NC(=O)[C@H](CCCNC(=N)N)NC(=O)[C@@H]1CCCN1C(=O)[C@H](CCCN)NC(=O)[C@@H](CCCCN)NC(=O)[C@@H](CCCCN)NC(=O)[C@@H](CCCCN)NC(=O)O[C@H]1CC[C@@]2(C)C(=CC[C@H]3[C@@H]4CC[C@H]([C@H](C)CCCC(C)C)[C@@]4(C)CC[C@@H]32)C1)C(=O)N[C@@H](Cc1ccc(O)cc1)C(=O)N[C@@H](CN)C(=O)N[C@@H](CCC(C)C)C(N)=O"}, "B20": {"name": "PTR 6374 (peptide)", "peptide": "XPRXYXX", "modifications": "N-terminal Cholesteryl-O-CO-; Nva, Dap, Hol; C-terminal NH2"}, "B21": {"name": "PTR 6368 (peptide)", "peptide": "H-RPH[Nva]Y[Dap][hLeu]-NH2", "SMILES": "CCC[C@H](NC(=O)[C@H](Cc1c[nH]cn1)NC(=O)[C@@H]1CCCN1C(=O)[C@@H](N)CCCNC(=N)N)C(=O)N[C@@H](Cc1ccc(O)cc1)C(=O)N[C@@H](CN)C(=O)N[C@@H](CCC(C)C)C(N)=O"}, "B22": {"name": "PTR 6396 (peptide)", "peptide": "{Vitamin E‑CO‑(CH2)2‑CO}-[dK][dK][dK]RPR[Nva]Y[Dap][hLeu]-NH2"}, "B23": {"name": "PTR 6356 (peptide)", "peptide": "{Cholesteryl‑O‑CO‑(CH2)2‑CO}-[dK][dK][dK]RPR[Nva]Y[Dap][hLeu]-NH2"}},
  "note": "Numbered stars: 1 amine (or outer) side, 2 acyl side, 3 side chain; on linkers, the order of the positions; unused ones are H or OH. Square brackets hold non-standard residues; d marks the D form. * marks the point of attachment. Cholesteryloxycarbonyl = CC(C)CCC[C@@H](C)[C@H]1CC[C@H]2[C@@H]3CC=C4C[C@@H](OC(=O)*)CC[C@]4(C)[C@H]3CC[C@]12C; Ser(Me) = COC[C@H](N[*:1])C(=O)[*:2]; hLeu = CC(C)CC[C@H](N)C(=O)O; Orn = NCCC[C@H](N)C(=O)O; Nva = CCC[C@H](N)C(=O)O; Dap = NC[C@H](N)C(=O)O",
  "data": [
    {"biological_target": "protein kinase B (PKB)", "assay": "cell-based or functional assay", "units": {"IC50, in vitro kinase assay PKB": "nM"}, "values": [
      {"binder": "B1", "IC50, in vitro kinase assay PKB": 2000},
      {"binder": "B2", "IC50, in vitro kinase assay PKB": 2000},
      {"binder": "B3", "IC50, in vitro kinase assay PKB": 2000},
      {"binder": "B4", "IC50, in vitro kinase assay PKB": 300},
      {"binder": "B5", "IC50, in vitro kinase assay PKB": 10000},
      {"binder": "B6", "IC50, in vitro kinase assay PKB": 200},
      {"binder": "B7", "IC50, in vitro kinase assay PKB": "> 10000"},
      {"binder": "B8", "IC50, in vitro kinase assay PKB": 360},
      {"binder": "B9", "IC50, in vitro kinase assay PKB": 1000},
      {"binder": "B10", "IC50, in vitro kinase assay PKB": 200},
      {"binder": "B11", "IC50, in vitro kinase assay PKB": 2000},
      {"binder": "B12", "IC50, in vitro kinase assay PKB": 200},
      {"binder": "B13", "IC50, in vitro kinase assay PKB": "> 10000"},
      {"binder": "B14", "IC50, in vitro kinase assay PKB": "> 10000"},
      {"binder": "B15", "IC50, in vitro kinase assay PKB": "> 10000"},
      {"binder": "B16", "IC50, in vitro kinase assay PKB": 100},
      {"binder": "B17", "IC50, in vitro kinase assay PKB": "> 10000"},
      {"binder": "B18", "IC50, in vitro kinase assay PKB": 5000},
      {"binder": "B19", "IC50, in vitro kinase assay PKB": 300},
      {"binder": "B20", "IC50, in vitro kinase assay PKB": 1400},
      {"binder": "B21", "IC50, in vitro kinase assay PKB": "> 10000"},
      {"binder": "B22", "IC50, in vitro kinase assay PKB": 200},
      {"binder": "B23", "IC50, in vitro kinase assay PKB": 170}
    ]}
  ]
}
